In experiment [1] the target is T1, Human GUCY2C ECD Cleaved (human, UniProt P25092 24-430).
T1 construct: also called human GUCY2c extracellular domain protein (ECD)
Nature of the experiment: SPR, human IgG1 against human GUCY2c ECD.

Experiment [2] concerns the target T2, Human GUCY2C ECD-muIgG2a (human).
T2 construct: also called human GUCY2c ECD-mouse IgG2a Fc fusion protein; huGUCY2c-mIgG2a
Nature of the experiment: sandwich ELISA: CD3 epsilon-delta coated, GUCY2c ECD-mIgG2a Fc in solution. In general terms: An ELISA detects its analyte on a solid surface through an enzyme-linked reagent.

Experiment [3] deals with T3, Human CD3 epsilon-delta (human).
T3 construct: Single-chain epsilon-linker-delta with His6; also called huCD3
T3 chain: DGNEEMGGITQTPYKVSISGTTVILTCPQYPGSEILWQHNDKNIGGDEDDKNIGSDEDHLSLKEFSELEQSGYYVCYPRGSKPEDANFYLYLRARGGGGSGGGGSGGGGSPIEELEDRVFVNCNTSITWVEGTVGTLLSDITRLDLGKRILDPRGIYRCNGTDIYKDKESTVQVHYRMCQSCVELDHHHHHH
The experiment can be described thus: direct ELISA, coated CD3 epsilon-delta.

Experiment [4] concerns the target Human GUCY2c on tumor cells (T84, HT55) (human, UniProt P25092 24-1073). The experiment can be described thus: cell-based or functional assay.
The target in experiment [5] is T4, Human GUCY2C full length (SEQ ID NO: 224), recombinant protein (human, UniProt P25092 24-430, limits assumed).
T4 construct: also called huGUCY2C; biotinylated human GUCY2c
T4 sequence (P25092 24-430 F281L limits assumed): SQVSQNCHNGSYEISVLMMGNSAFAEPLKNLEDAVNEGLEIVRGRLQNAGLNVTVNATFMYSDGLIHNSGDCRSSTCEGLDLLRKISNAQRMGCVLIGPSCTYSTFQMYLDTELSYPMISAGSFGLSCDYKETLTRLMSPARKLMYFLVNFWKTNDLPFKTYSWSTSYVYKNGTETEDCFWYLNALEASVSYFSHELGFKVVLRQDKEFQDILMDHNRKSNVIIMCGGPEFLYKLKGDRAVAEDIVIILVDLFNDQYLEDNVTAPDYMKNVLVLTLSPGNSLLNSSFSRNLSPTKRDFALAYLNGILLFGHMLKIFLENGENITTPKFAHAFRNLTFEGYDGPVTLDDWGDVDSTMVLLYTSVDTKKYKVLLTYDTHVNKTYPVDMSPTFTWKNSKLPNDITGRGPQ
The experiment can be described thus: SPR, GUCY2c directly immobilized, 25 C.

Experiment [6] concerns the target T5, Purified human GUCY2c ECD (recombinant, construct not stated) (human, UniProt P25092 24-430).
T5 construct: also called recombinant human GUCY2c; recombinant GUCY2c protein
Nature of the experiment: direct ELISA, coated GUCY2c ECD.

Where a chain is given by its changes, count along the chain named.

T5 sequence (P25092 24-430 limits assumed): as the sequence (P25092 24-430 F281L limits assumed) above, with L258F counted along it
Chain of Human GUCY2c on tumor cells (T84, HT55) (P25092 24-1073 limits assumed): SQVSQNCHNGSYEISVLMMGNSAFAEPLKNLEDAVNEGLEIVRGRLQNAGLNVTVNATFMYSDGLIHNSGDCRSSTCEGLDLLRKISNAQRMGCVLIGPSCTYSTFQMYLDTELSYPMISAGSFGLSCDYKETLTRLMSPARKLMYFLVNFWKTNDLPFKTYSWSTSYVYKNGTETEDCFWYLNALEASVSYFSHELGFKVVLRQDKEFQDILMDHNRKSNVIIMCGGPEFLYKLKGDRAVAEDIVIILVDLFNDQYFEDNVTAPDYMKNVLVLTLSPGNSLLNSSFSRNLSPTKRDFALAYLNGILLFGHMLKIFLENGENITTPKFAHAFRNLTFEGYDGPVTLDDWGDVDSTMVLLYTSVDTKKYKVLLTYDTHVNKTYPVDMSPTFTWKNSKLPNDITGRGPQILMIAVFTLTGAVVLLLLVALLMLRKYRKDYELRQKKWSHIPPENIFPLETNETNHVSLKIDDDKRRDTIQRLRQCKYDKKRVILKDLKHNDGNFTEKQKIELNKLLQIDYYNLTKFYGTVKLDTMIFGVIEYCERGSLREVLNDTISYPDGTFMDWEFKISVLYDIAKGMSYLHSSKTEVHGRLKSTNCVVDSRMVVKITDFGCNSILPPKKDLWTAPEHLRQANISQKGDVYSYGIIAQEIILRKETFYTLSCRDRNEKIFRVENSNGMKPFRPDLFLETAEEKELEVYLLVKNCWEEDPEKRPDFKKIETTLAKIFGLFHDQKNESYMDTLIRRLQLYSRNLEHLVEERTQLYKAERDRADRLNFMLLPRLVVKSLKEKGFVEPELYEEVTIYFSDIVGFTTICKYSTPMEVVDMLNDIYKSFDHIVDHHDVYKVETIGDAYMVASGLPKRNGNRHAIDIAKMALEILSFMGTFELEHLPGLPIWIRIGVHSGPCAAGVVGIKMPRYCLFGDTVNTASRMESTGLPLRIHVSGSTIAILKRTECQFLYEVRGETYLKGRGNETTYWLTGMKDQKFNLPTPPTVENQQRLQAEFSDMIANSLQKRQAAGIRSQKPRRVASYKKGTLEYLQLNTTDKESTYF
T2 sequence (chain, as listed by the source limits assumed): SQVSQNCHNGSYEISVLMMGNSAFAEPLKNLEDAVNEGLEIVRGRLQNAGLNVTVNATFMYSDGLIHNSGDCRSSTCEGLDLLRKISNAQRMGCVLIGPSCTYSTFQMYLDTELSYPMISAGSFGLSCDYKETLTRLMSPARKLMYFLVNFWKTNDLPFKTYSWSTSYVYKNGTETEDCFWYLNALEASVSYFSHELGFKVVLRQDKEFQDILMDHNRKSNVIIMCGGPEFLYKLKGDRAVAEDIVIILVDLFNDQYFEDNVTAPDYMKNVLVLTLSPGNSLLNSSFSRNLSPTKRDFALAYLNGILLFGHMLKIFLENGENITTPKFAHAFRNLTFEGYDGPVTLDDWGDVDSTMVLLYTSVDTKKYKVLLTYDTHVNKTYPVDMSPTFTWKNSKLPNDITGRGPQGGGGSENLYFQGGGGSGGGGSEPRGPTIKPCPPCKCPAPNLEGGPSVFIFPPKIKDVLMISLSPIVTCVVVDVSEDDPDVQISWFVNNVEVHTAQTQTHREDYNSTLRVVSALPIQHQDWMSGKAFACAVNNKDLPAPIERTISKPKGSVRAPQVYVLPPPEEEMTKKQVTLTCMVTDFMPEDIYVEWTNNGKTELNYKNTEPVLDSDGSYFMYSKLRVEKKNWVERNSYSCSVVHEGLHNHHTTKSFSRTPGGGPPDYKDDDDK
T1 sequence (P25092 other isoform, or with tags, fused parts or gaps): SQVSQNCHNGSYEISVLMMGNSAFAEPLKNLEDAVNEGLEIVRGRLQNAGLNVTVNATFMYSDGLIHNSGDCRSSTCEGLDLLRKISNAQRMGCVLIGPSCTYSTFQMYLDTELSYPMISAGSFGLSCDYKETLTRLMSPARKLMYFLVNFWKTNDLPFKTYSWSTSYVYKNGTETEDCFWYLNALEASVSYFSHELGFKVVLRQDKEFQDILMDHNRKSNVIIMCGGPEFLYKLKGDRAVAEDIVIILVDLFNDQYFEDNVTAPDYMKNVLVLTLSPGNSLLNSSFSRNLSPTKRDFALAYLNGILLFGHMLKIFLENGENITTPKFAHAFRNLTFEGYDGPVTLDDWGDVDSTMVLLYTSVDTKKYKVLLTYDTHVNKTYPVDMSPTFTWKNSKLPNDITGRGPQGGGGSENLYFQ

B1: GUCY2C-1705 (antibody, human IgG1, V domains shown)
VH: EVQLVESGGGLVQPGGSLRLSCAASGFTFSSYWMHWVRQAPGKGLEWIGEIKPSRGFTNVHEKFKDRFTISVDKAKNSAYLQMNSLRAEDTAVYYCTRTITTTEGYWFFDVWGQGTLVTVSS
VL: DIQLTQSPSSLSASVGDRVTITCRASESVDYYGSSLMQWYQQKPGKAPKLLIYAASKLASGVPSRFSGSGSGTDFTLTISSLQPEDFATYYCQQTRKAYTFGQGTKLEIK
notes: full human IgG1/kappa
Broadly, the Kd is the free concentration of one partner at which half of the binding sites on the other are occupied at equilibrium, for simple one-to-one binding. Broadly, the koff is the first-order rate constant of dissociation. A word on the kon: it is the rate constant with which the complex forms. In experiment [1], B1 came in with a Kd of 6.25 nM, a koff of 0.00149 s⁻¹ and a kon of 239000 M⁻¹ s⁻¹.

B2: GUCY2C-1640 (antibody, human IgG1, kappa, V domains shown)
VH: B1 VH with R55N, G56E, F57L
VL: DIQLTQSPSSLSASVGDRVTITCRASESVDYYGSSLLQWYQQKPGKAPKLLIYAASKLASGVPSRFSGSGSGTDFTLTISSLQPEDFATYYCQQTRKAYTFGQGTKLEIKR
As for B2, in experiment [1], the affinity, expressed as Kd, was 13.9 nM; the koff is 0.00271 s⁻¹; the kon was 195000 M⁻¹ s⁻¹.

B3: GUCY2C-1703 (antibody, human IgG1, V domains shown)
VH: B1 VH with R55N, G56R, F57W, T58N
VL: B1 VL
notes: full human IgG1/kappa
On to B3, for which, in experiment [1], the Kd is 10.3 nM, the koff was determined as 0.00214 s⁻¹ and the kon stood at 210000 M⁻¹ s⁻¹.

B4: GUCY2C-1706 (antibody, human IgG1, V domains shown)
VH: B1 VH with Y32T, R55N, G56E, F57L
VL: B1 VL
notes: full human IgG1/kappa
For the molecule B4, in experiment [1], binding was put at a Kd of 9.75 nM, the koff was found to be 0.00193 s⁻¹ and the kon is 198000 M⁻¹ s⁻¹.

B5: GUCY2C-1696 (antibody, human IgG1, V domains shown)
VH: B1 VH with S31T, Y32R, R55N, G56K, F57L, T97A, F109L, D110S, V111D
VL: B1 VL with S34H
notes: full human IgG1/kappa
In experiment [1], B5 registered a Kd of 12.4 nM, an off-rate constant (koff) of 0.00179 s⁻¹ and a kon of 144000 M⁻¹ s⁻¹.

B6: GUCY2C-1710 (antibody, human IgG1, V domains shown)
VH: B1 VH with F57W, T97A
VL: B1 VL with G33R, S34H
notes: full human IgG1/kappa
In experiment [1], B6 showed a dissociation constant (Kd) of 5.94 nM, a koff of 0.00147 s⁻¹ and an on-rate (kon) of 248000 M⁻¹ s⁻¹.

B7: GUCY2C-1708 (antibody, human IgG1, V domains shown)
VH: B1 VH with S31R, Y32P, R55T, F57W, E104T
VL: B1 VL with G33K, S34H
notes: full human IgG1/kappa
On to B7, for which, in experiment [1], binding was put at a Kd of 9.44 nM, the koff was found to be 0.00132 s⁻¹ and the on-rate (kon) came to 140000 M⁻¹ s⁻¹.

B8: GUCY2C-1713 (antibody, human IgG1, V domains shown)
VH: B1 VH with S31H, Y32T, E104Q
VL: B1 VL with D30N, Y31W
notes: full human IgG1/kappa
Take B8: in experiment [1], the Kd came out at 6.71 nM, the off-rate (koff) stood at 0.00108 s⁻¹ and the kon stood at 161000 M⁻¹ s⁻¹.

B9: GUCY2C-1714 (antibody, human IgG1, V domains shown)
VH: B1 VH with S31H, Y32T, R55T, G56K, F57Y, T97A, T101F, T103R
VL: B1 VL with D30N, Y31W
notes: full human IgG1/kappa
As for B9, in experiment [1], the equilibrium dissociation constant (Kd) was 10.3 nM, the koff amounted to 0.00124 s⁻¹ and the association rate constant (kon) worked out at 121000 M⁻¹ s⁻¹.

B10: GUCY2C-0077 (bispecific antibody)
chain 1: DIVLTQSPASLAVSLGQRATISCRASESVDNFDISFMNWFQQKPGQPPKLLIYAASNQGSGVPARFSGSGSGTDFSLNIHPMEEDDTAMYFCQQSKEVPYTFGGGTKLEIKGGGSGGGGEVQLVESGGGLVQPGGSLRLSCAASGFTFSDYYMTWVRQAPGKGLEWVAFIRNRARGYTSDHNPSVKGRFTISRDNAKNSLYLQMNSLRAEDTAVYYCARDRPSYYVLDYWGQGTTVTVSSGCPPCPAPEAAGAPSVFLFPPKPKDTLMISRTPEVTCVVVDVSHEDPEVKFNWYVDGVEVHNAKTKPREEQYNSTYRVVSVLTVLHQDWLNGKEYKCKVSNKALPAPIEKTISKAKGQPREPQVCTLPPSREEMTKNQVSLWCLVKGFYPSDIAVEWESNGQPENNYKTTPPVLDSDGSFFLYSKLTVDKSRWQQGNVFSCSVMHEALHNHYTQKSLSLSPG
chain 2: DIVMTQSPDSLAVSLGERATINCKSSQSLFNVRSRKNYLAWYQQKPGQPPKLLISWASTRESGVPDRFSGSGSGTDFTLTISSLQAEDVAVYYCKQSYDLFTFGSGTKLEIKGGGSGGGGEVQLQQSGAELARPGASVKLSCKASGYTFTKYWMQWIKQRPGQGLEWIGAIYPGDGFTTYTQKFKGKATLTADKSSNTAYMQLSSLASEDSAVYYCARRNYGRTYGGDYWGQGTSVTVSSGCPPCPAPEAAGAPSVFLFPPKPKDTLMISRTPEVTCVVVDVSHEDPEVKFNWYVDGVEVHNAKTKPREEQYNSTYRVVSVLTVLHQDWLNGKEYKCKVSNKALPAPIEKTISKAKGQPREPQVYTLPPCREEMTKNQVSLSCAVKGFYPSDIAVEWESNGQPENNYKTTPPVLDSDGSFFLVSKLTVDKSRWQQGNVFSCSVMHEALHNHYTQKSLSLSPG
A word on the EC50: it is the midpoint of the concentration-response curve. The molecule B10 came in with a concentration giving a half-maximal response (EC50) in experiment [2] of 7.5 nM. The same molecule yielded an EC50 in experiment [3] of 0.887 nM. The “T84 tumor cell EC50 (T cell cytotoxicity, E:T 10:1)” value (from here on “T84 tumor cell EC50”) in experiment [4] turned out to be 28.7 nM. Besides, in experiment [5], the dissociation constant (Kd) was 160 nM, the koff was 0.0224 s⁻¹ and the on-rate constant (kon) was found to be 143000 M⁻¹ s⁻¹. For the same molecule, the EC50 in experiment [6] came to 27.5 nM.

B11: GUCY2C-0078 (bispecific antibody)
chain 1: B10 chain 1 with S26G
chain 2: B10 chain 2
Regarding B11, the figures for the EC50 in experiment [2], in experiment [3] and in experiment [6] were 9.68 nM, 1.45 nM and 23.5 nM, respectively. For the same molecule, the “T84 tumor cell EC50” value in experiment [4] turned out to be 7.8 nM.

B12: GUCY2C-0105 (bispecific antibody)
chain 1: DIVMTQSPSSLAVSVGEKVTVSCKSSQSLLYSSNQKNYLAWYQQRPGQSPKLLIYWASTRESGVPDRFTGSGSGTDFTLSISSVKAEDLAVYYCQQYYSYPTFGGGTKLEIKGGGSGGGGEVQLVESGGGLVQPGGSLRLSCAASGFTFSDYYMTWVRQAPGKGLEWVAFIRNRARGYTSDHNPSVKGRFTISRDNAKNSLYLQMNSLRAEDTAVYYCARDRPSYYVLDYWGQGTTVTVSSGCPPCPAPEAAGAPSVFLFPPKPKDTLMISRTPEVTCVVVDVSHEDPEVKFNWYVDGVEVHNAKTKPREEQYNSTYRVVSVLTVLHQDWLNGKEYKCKVSNKALPAPIEKTISKAKGQPREPQVCTLPPSREEMTKNQVSLWCLVKGFYPSDIAVEWESNGQPENNYKTTPPVLDSDGSFFLYSKLTVDKSRWQQGNVFSCSVMHEALHNHYTQKSLSLSPG
chain 2: DIVMTQSPDSLAVSLGERATINCKSSQSLFNVRSRKNYLAWYQQKPGQPPKLLISWASTRESGVPDRFSGSGSGTDFTLTISSLQAEDVAVYYCKQSYDLFTFGSGTKLEIKGGGSGGGGEVQLQQSGPELVKPGASVKISCKASGYSFTDYIMLWVKQSHGKSLEWIGNSNPYYGSTSYNLKFKGKATLTVDKSSSTAYMHLNSLTSEDSAVYYCARSGYYGSSPYWYFDVWGAGTTVTVSSGCPPCPAPEAAGAPSVFLFPPKPKDTLMISRTPEVTCVVVDVSHEDPEVKFNWYVDGVEVHNAKTKPREEQYNSTYRVVSVLTVLHQDWLNGKEYKCKVSNKALPAPIEKTISKAKGQPREPQVYTLPPCREEMTKNQVSLSCAVKGFYPSDIAVEWESNGQPENNYKTTPPVLDSDGSFFLVSKLTVDKSRWQQGNVFSCSVMHEALHNHYTQKSLSLSPG
notes: chimeric CD3-GUCY2c diabody-Fc, CD3-0004
Turning to B12, the half-maximal effective concentration (EC50) in experiment [2] is 5.04 nM; in experiment [3], 0.355 nM; in experiment [6], 79.8 nM. Also, in experiment [4], the “T84 tumor cell EC50” value is 7.51 nM.

The values above are taken from patent US20230340151A1 (Pfizer, published 2023).
